Assay [1] deals with MAdV-2.IXeGFP virus particle (replication competent MAdV-2 with enhanced green fluorescent protein fused to minor capsid protein IX) (mouse adenovirus 2 | not stated).
Assay [2] concerns the target mouse adenovirus 2 (MAdV-2), wild type virus particle (mouse adenovirus 2).
The target in assay [3] is MAdV-2.IXeGFP virus particle (replication competent MAdV-2 with enhanced green fluorescent protein fused to minor capsid protein IX) (mouse adenovirus 2 | not stated). This is another data set of the same source.

As for Cryptdin 2 (peptide), in assay [1], the infection of CMT-93 cells by MAdV-2.IXeGFP pre-incubated with cryptdin 2 (dose-responsive over the indicated concentrations), relative to infection without defensin is 2.4 fold. The infection of CMT-93 cells by MAdV-2 pre-incubated with cryptdin 2 (dose-responsive over the indicated concentrations), relative to infection without defensin in assay [2] stood at 1.8 fold.
LRDLVCYCRKRGCKRRERMNGTCRKGHLMYTLCCR [Cryptdin 3]: in assay [3], the infection of CMT-93 cells by MAdV-2.IXeGFP pre-incubated with cryptdin 3 (indicated concentrations), relative to infection without defensin is 1.7 fold.

These data come from paper PMC5489213.
